We go through three substances from PMC11286949.

For data set [1], the target named is T1, Arc1p dNdM1 (Saccharomyces cerevisiae) (UniProt P46672).
T1 sequence (P46672 whole entry, looked up): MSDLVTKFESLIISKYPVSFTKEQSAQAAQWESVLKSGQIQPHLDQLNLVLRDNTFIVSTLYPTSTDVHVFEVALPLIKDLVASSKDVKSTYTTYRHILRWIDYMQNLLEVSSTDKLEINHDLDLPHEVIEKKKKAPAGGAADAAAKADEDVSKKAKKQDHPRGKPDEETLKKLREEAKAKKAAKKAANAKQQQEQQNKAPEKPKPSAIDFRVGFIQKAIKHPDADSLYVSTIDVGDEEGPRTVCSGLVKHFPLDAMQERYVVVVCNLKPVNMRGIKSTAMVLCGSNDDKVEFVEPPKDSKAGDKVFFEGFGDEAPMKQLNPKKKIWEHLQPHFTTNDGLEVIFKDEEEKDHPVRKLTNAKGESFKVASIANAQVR
As to the kind of experiment: ITC. The following applies: FP: 25 mM Tris-HCl pH 7.5, 2 mM MgCl2, 50 mM NaCl (Trbp111) or 150 mM NaCl (Arc1p), room temperature, ITC: 25 mM Tris-HCl pH 7.4, 150 mM NaCl.

In data set [2] the target is Aquifex aeolicus Trbp111 (tRNA-binding protein, 111 amino acids) (Aquifex aeolicus). As to the kind of experiment: crystal structure; unbound (apo) Trbp111, 2.3 Å, space group C222_(1); crystals grew from a mixture with tRNA^Ile, 0.2 M lithium sulfate, 0.1 M Tris-HCl pH 8.5, 25% PEG 3350.
In data set [3] the target is T2, Arc1p dN del1-131 (Saccharomyces cerevisiae) (UniProt P46672).
T2 sequence: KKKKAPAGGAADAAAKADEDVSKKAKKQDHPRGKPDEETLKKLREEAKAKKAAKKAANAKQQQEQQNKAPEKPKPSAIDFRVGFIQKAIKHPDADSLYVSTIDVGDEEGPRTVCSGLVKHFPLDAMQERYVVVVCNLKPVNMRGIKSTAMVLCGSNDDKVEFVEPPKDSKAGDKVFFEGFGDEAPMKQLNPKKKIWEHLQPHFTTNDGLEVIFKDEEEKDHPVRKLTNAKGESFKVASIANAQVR
Put plainly: ITC. The following applies: FP: 25 mM Tris-HCl pH 7.5, 2 mM MgCl2, 50 mM NaCl (Trbp111) or 150 mM NaCl (Arc1p), room temperature, ITC: 25 mM Tris-HCl pH 7.4, 150 mM NaCl.

The Kd is a measure of binding affinity in units of concentration. Substance “AGGCUUGUAGCUCAGGUGGUUAGAGCGCACCCCUGAUAAGGGUGAGGGCGGUGGUUCAAGUCCACUCAGGCCUACCA [tRNAIle WT]” had a Kd in data set [1] of 2.55 µM.
What is called stoichiometry N is the number of molecules, sites or subunits per partner or assembly. As to “Aquifex aeolicus Trbp111 (tRNA-binding protein, 111 amino acids) (natural protein)”, in data set [2], the stoichiometry N stood at 2.
As for tRNAIle G18C/G19C, the equilibrium dissociation constant (Kd) in data set [3] is 3.33 µM.
